Tests used:
[1] = target: T1, mGlyR (GPR158) co-expressed in HEK293FT cells in the BRET-based GAP assay (human, UniProt Q5T848 24-1215); assay: cell-based or functional assay
T1 sequence: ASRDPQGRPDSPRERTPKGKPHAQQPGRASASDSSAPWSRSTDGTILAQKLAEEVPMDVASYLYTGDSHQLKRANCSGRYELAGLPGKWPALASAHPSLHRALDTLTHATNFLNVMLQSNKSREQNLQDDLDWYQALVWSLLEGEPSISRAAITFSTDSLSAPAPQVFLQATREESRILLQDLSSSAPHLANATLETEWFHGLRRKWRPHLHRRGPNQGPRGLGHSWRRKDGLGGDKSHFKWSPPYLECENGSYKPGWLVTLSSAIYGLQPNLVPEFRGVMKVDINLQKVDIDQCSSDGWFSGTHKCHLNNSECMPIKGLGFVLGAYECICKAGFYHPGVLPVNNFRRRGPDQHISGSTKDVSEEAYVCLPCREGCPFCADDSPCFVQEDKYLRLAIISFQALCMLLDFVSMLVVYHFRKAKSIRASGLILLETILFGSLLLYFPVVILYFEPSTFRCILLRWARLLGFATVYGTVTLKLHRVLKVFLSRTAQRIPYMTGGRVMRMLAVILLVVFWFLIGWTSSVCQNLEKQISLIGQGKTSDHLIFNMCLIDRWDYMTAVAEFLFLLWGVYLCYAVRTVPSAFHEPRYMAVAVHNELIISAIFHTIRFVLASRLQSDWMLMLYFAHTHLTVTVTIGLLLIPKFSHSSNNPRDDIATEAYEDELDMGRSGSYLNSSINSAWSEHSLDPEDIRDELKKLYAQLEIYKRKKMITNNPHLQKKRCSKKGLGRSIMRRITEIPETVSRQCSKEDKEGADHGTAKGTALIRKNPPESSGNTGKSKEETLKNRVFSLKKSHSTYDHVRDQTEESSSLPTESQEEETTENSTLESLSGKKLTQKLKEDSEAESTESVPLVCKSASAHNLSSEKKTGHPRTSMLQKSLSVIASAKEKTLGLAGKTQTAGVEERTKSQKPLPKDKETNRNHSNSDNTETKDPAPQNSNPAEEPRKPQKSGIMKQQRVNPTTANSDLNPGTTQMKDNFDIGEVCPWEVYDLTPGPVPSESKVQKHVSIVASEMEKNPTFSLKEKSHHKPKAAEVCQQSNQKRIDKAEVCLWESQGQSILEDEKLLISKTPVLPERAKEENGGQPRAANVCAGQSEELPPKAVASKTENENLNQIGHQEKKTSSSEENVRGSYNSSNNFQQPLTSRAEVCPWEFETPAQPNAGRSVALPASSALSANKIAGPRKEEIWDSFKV

[2] = target: T2, Venus-tagged full length GPR158 (mGlyR) transiently expressed on HEK293 cells (human, UniProt Q5T848 24-1215); assay: flow cytometry, % of positive cells against Log [Nanobody] (M), cells expressing mGlyR, n=3, detection with anti-myc-APC
T2 construct: This is the flow cytometry target; not shown: Venus tag
T2 sequence: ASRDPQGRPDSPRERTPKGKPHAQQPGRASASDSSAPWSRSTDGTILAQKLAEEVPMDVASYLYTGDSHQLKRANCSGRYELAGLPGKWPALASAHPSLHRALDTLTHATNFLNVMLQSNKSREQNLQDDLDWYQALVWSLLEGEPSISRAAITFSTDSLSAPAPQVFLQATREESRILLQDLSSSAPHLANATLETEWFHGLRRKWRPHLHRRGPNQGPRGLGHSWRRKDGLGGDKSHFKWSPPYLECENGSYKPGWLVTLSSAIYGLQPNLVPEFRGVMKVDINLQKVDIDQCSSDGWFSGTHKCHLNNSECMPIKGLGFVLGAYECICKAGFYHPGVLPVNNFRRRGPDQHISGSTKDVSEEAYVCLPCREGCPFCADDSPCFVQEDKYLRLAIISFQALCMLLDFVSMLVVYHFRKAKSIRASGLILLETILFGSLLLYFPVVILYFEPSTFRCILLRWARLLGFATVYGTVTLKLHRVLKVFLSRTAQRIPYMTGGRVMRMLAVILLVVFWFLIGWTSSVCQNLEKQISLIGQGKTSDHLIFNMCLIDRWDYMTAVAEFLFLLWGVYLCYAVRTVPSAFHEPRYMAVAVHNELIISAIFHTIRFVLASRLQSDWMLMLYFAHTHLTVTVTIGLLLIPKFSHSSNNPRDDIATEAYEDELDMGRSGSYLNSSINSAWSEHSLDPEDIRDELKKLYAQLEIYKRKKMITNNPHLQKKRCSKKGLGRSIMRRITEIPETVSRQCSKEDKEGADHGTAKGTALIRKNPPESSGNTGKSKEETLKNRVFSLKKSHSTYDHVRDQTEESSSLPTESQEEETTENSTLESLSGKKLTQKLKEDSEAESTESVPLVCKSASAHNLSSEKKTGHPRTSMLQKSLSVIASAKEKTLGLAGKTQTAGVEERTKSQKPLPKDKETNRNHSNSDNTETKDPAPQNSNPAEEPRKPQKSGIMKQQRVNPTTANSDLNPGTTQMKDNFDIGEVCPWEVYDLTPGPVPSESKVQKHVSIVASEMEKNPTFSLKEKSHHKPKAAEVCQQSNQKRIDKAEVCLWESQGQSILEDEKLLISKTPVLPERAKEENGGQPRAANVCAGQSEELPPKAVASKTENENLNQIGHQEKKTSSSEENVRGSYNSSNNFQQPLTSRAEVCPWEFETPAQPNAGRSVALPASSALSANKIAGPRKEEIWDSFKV

[3] = target: T2, Venus-tagged full length GPR158 (mGlyR) …; assay: flow cytometry titration on GPR158-transfected HEK293 cells
Experimental: HEK293FT cells were cultured in 6 well plates at the density of 1.10⁶ per well and transfected with 2 μg of cDNA of mGlyR or empty pcDNA3.1+ in control experiments, using Metafectene Pro. 48 h after transfection, cells were mechanically detached pipetting up-down, washed in PBS supplemented with 0.1% BSA, counted and incubated in PBS-0.1% BSA for 1 h at 4° C. under rotation. […] After 3 washes, cells were analyzed in LSR-II BD flow cytometer. Gating strategy to sort individual cells to debris and doublets was used. Sorted cells were measured for fluorescence in respective channels. […] Acquired data were analyzed using FlowJo software (FlowJo).

B1: llama nanobody Nb20 (Nanobody-20), purified recombinant, myc- and His-tagged (VHH, not shown: small tags and cut ends)
VHH: EVQLQESGGGLVQAGGSLRLSCAASGSIGNIYIMGWYRQTPGPQRELVATIRTVRWTKYEDYADSVKGRFTISDDDAKNTVYLQMNSLKPEDTAVYYCNYKDYNAPSDGYWGQGTQVTVSS
notes: Expressed in E. coli BL21 DE3 from pET28a and purified on Ni-IDA; Detected by an anti-myc-APC antibody in flow cytometry; The two passages disagree on where the tags sit; also called clone number 20
IC50, dose-response of changes in GAP activity (BRET-based GAP assay) [1]: ~6 nM | IC50, inhibition of GAP activity of GPR158 via RGS7/Gβ5 (BRET-based GAP assay) [1]: 5.77 nM | EC50 [2]: 9.9 nM | EC50 [3]: ~10 nM

— patent US20260193347A1 (UNIVERSITY OF FLORIDA RESEARCH FOUNDATION, published 2026)
